Laboratory results as given in article PMC5587734.

Tests used:
MBD2 MBD (chicken) = MBD2 MBD (chicken) (chicken, UniProt Q5EFL0 1-71); assay: NMR
MBD2 MBD+IDR (chicken) = MBD2 MBD+IDR (chicken) (chicken, UniProt Q5EFL0 1-117); assay: NMR

B1: INV mCpG DNA (dsDNA)
DNA 1: GGACCGACTC
DNA 2: GAGTCGGTCC
modifications: 5mC at position 5 of strand 1; complement methylation implied
Question: Does B1 bind (MBD2 MBD (chicken))?
Answer: binds

Question: Does B1 bind (MBD2 MBD+IDR (chicken))?
Answer: binds
